Data taken from FireProtDB (doi:10.1021/bi00005a026).

Settings: Hordeum vulgare; pH 6.3; Thermal; Fluorescence; phosphate 10 mM; reversible: yes; whole UniProt chain shown

B1: Subtilisin-chymotrypsin inhibitor-2A wild type, P01053 (protein)
chain: MSSVEKKPEGVNTGAGDRHNLKTEWPELVGKSVEEAKKVILQDKPEAQIIVLPVGTIVTMEYRIDRVRLFVDKLDNIAQVPRVG
  Tm: 46.6 °C
  unfolding enthalpy (van 't Hoff): 34.1 kcal/mol
